# In PMC3392491:
# Target: T1, Dda K38A (bacteriophage T4, UniProt P32270 1-439, K38A)
# T1 sequence: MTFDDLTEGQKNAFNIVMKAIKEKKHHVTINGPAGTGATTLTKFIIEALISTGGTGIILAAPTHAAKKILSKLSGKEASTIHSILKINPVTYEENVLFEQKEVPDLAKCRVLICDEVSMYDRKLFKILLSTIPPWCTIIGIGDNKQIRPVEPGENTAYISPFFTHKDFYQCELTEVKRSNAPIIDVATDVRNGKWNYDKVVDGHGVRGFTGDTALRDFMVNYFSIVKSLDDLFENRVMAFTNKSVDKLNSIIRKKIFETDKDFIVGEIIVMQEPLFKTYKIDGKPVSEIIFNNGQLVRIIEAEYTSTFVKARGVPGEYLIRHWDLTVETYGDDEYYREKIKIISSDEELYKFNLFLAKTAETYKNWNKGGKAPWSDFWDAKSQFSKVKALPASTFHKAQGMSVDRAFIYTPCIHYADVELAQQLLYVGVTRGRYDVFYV
# Experiment: X-ray crystallography
binder,measurement,value
TTTTTTTT (ssDNA) [dT8],binding result,binds
